Experimental data from patent US20110311550A1 (Scripps Research, published 2011).

Legend:
Assay in all cases: ELISA, Fab on E1E2 antigen
[1] = biological target: HCV E1E2 antigen, isolate UKN2B1.1 (hepatitis C virus, isolate UKN2B1.1)
[2] = biological target: HCV E1E2 antigen, isolate UKN6.5.8 (hepatitis C virus, isolate UKN6.5.8)
[3] = biological target: HCV E1E2 antigen, isolate CH35 (hepatitis C virus, isolate CH35)
[4] = biological target: HCV E1E2 antigen, isolate UKN4.21.16 (hepatitis C virus, isolate UKN4.21.16)
[5] = biological target: HCV E1E2 antigen, isolate UKN1B12.16 (hepatitis C virus, isolate UKN1B12.16)
[6] = biological target: HCV E1E2 antigen, isolate UKN5.15.7 (hepatitis C virus, isolate UKN5.15.7)
[7] = biological target: HCV E1E2 antigen, isolate UKN3A1.28c (hepatitis C virus, isolate UKN3A1.28c)
[8] = biological target: HCV E1E2 antigen, isolate OH8 (hepatitis C virus, isolate OH8)
[9] = biological target: T1, HCV E1E2 antigen, isolate JFH (hepatitis C virus, isolate JFH, UniProt Q99IB8 192-383; Q99IB8 384-750)
T1 construct: also called JFH-1
T1 sequence (Q99IB8 192-383 limits assumed, chain 1 of 2): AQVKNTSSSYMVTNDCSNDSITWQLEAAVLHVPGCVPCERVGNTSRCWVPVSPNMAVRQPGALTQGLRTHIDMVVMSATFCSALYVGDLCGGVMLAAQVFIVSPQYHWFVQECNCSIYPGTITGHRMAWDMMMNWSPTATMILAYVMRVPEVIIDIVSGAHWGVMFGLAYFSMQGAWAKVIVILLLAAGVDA
T1 sequence (Q99IB8 384-750 limits assumed, chain 2 of 2): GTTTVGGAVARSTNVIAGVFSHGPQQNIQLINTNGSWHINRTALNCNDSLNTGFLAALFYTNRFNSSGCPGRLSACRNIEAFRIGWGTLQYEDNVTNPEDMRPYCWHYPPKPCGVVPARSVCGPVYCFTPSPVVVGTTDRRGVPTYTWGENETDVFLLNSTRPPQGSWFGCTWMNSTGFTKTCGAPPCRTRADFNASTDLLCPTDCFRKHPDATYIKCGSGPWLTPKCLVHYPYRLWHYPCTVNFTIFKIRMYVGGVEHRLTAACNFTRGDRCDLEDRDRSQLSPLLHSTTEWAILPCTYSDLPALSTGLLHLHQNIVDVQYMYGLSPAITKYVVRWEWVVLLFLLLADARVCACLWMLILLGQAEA

[10] = biological target: HCV E1E2 antigen, isolate J6E3 (hepatitis C virus, isolate J6E3, UniProt P26660 192-383; P26660 384-750)
Sequence of HCV E1E2 antigen, isolate J6E3 (P26660 192-383 limits assumed, chain 1 of 2): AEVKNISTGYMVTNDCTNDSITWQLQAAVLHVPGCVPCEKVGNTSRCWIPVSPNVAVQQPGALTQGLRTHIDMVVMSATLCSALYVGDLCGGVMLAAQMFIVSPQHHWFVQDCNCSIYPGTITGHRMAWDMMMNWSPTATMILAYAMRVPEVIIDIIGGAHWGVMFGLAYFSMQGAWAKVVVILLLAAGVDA
Sequence of HCV E1E2 antigen, isolate J6E3 (P26660 384-750 limits assumed, chain 2 of 2): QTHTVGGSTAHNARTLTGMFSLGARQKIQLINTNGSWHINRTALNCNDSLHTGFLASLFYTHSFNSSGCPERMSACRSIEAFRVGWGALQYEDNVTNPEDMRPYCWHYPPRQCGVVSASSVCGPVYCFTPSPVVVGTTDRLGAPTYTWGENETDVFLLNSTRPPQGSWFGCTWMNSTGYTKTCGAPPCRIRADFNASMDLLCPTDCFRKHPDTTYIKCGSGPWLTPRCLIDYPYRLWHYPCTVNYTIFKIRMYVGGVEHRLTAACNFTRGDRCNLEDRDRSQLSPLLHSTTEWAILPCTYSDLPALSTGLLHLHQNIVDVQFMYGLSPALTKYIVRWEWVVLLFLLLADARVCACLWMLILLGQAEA

Binder	OD 450 nm [1]	OD 450 nm [2]	OD 450 nm [3]	OD 450 nm [4]	OD 450 nm [5]	OD 450 nm [6]	OD 450 nm [7]	OD 450 nm [8]	OD 450 nm [9]	OD 450 nm [10]
Fab P2 (Fab, V domains shown) VH: EVQLLESGGGVVQPGRSLRLSCAASGFTLDTFTMHWVRQSPGKGLEWVALISHDANNKDYADSVKGRFTISRDNSKKLVYLQMDSLRSEDTAVYYCARGGPAYYLYSDVLTGFHNVVGDYWGQGTLVTVSA VL: not shown	0.18 OD 450 nm	0.22 OD 450 nm	0.47 OD 450 nm	0.78 OD 450 nm	0.59 OD 450 nm	0.25 OD 450 nm	1.05 OD 450 nm	1 OD 450 nm	0.88 OD 450 nm	0.6 OD 450 nm
Fab P1 (Fab, V domains shown) VH: EVQLLESGGGVVQPGGSLRLSCAASGFTFTSFTMHWVRQAPGKGLEWVALISHDGSNKDYADSVRGRFTVSRDNSKKMVYLQMSSLRPDDAAVYYCARGGPAYYTYSDTLTGYHNVVGDYWGQGTLVTVSS VL: ELTQSPGTLSLSPGERATLSCRASQVRGFLAWFQQKPGQAPRLLIYGASNRAPGIPDRFSGSGSGTDFTLTISRLEPEDFAVYYCQQYGDSPPITFGQGTRLEIKR	0.03 OD 450 nm	0.06 OD 450 nm	0.27 OD 450 nm	0.62 OD 450 nm	0.26 OD 450 nm	0.17 OD 450 nm	0.98 OD 450 nm	0.8 OD 450 nm	–	0.08 OD 450 nm
Fab P1a (Fab, V domains shown) VH: EVQLLESGGGVVQPGGSLRLSCAASGFTFTSFTMHWVRQAPGKGLEWVALISHDGSNKDYADSVRGRFTVSRDNSKKMVYLQMSSLRPDDAAVYYCARGGPAYYTYSDTLTGYHNVVGDYWGQGTLVTVSS VL: ELTQSPGTLSLSPGERATLSCRTSQSVSSTYLAWYQQKPGQPPRLLIYGASNRAPGIPDRFSGSGSGTDFTLTISRLEPEDFAVYYCQQYGDSPPITFGQGTRLDIKR	0 OD 450 nm	0.05 OD 450 nm	0.08 OD 450 nm	0.04 OD 450 nm	0.15 OD 450 nm	-0.04 OD 450 nm	0.18 OD 450 nm	0.24 OD 450 nm	0 OD 450 nm	0.03 OD 450 nm
Fab P3 (Fab, V domains shown) VH: EVQLLESGGGVVQPGKSLRLSCAVSGFTLNTFAMHWVRQVPGKGLEWVALTSHDGSRQDYADSVRGRFTISRDNSKSMVFLLMNSLRAEDTAVYYCVRGGPAYYTYNDVLTGYAYVVGDFWGQGTLVTVSS VL: not shown	0 OD 450 nm	0.03 OD 450 nm	0.11 OD 450 nm	0.15 OD 450 nm	0.2 OD 450 nm	0.06 OD 450 nm	0.33 OD 450 nm	0.36 OD 450 nm	0 OD 450 nm	0.11 OD 450 nm
Fab P4 (Fab, V domains shown) VH: not shown VL: ELTQSPGTLSLSPGERATLSCRASQSVSSSNLAWFQHKSGRAPRLLIYGASNRAPDIPDRFSGSGSGTDFTLSISRLEPEDFAVYYCQRYGDSPPITFGQGTRLEIKR	0.09 OD 450 nm	0.19 OD 450 nm	0.52 OD 450 nm	0.99 OD 450 nm	0.59 OD 450 nm	0.31 OD 450 nm	1.07 OD 450 nm	1.15 OD 450 nm	0.45 OD 450 nm	–
Fab O1 (Fab, V domains shown) VH: VQLLEQSGAEVKKAGESVRLSCKASGYRFGDYWIAWVRQLPGRAPEWMGIIYPDDSDTKYSPSFQGQVTISADKSIRTTFLDWGSLKASDTAIYYCARGCLGAKCYYPHYYYGLDVWGQGTTVIVSS VL: ELTQSPSSLSASVGDRVTITCRATQGIDNYLNWYQQKPGKPPRLLIYGASSLQSGVPSRFSGGGSGTHFTLTITNLQPEDFATYYCQQSYSTPPETFGQGTKVEIKR	0.02 OD 450 nm	0.02 OD 450 nm	0.27 OD 450 nm	0.57 OD 450 nm	0.17 OD 450 nm	0.1 OD 450 nm	0.48 OD 450 nm	0.44 OD 450 nm	0 OD 450 nm	0.05 OD 450 nm
Fab V1 (Fab, V domains shown) VH: VQLLEQSGAEVQKPGASVKVSCKPSGYIFTNFGISWVRQAPGQGLEWMAWINTYNGKTTYAQSLQGRVTLTTDPYTNTVFMELRSLRSDDTAVYYCARENEGEYVWGHFRSDYWGQGTLVTVSS VL: ELTQSPSSLSASVGDRVTITCQASQDISNFLNWYQRRPGKAPNLLIYDATHLETGVPSRFSGSGFGTHFTLTINSLQPEDIGTYYCQHFDDVPSFTFGPGTKVDLKR	0.3 OD 450 nm	0.05 OD 450 nm	0.77 OD 450 nm	1.02 OD 450 nm	0.16 OD 450 nm	0.3 OD 450 nm	0.06 OD 450 nm	1.35 OD 450 nm	–	–
Fab N3 (Fab, V domains shown) VH: VQLLEQSGAEVKKPGDSLRISCKMSGDSLVWIGWVRQKPGQGLEWMGIINPGDSATNIYPGDSDTRYGPSFQGQVTISIDKSTSTAYLQWNAVKASDTGIYYCARHVPVPISGTFLWREREMHDLGYFDDWGQGTLVIVSS VL: not shown	0.29 OD 450 nm	0.23 OD 450 nm	0.59 OD 450 nm	0.96 OD 450 nm	0.62 OD 450 nm	0.37 OD 450 nm	1.27 OD 450 nm	1.32 OD 450 nm	1.2 OD 450 nm	0.66 OD 450 nm
Fab N1 (Fab, V domains shown) VH: VQLLEQSGPEVKKPGDSLRISCKMSGDSLVTTWIGWVRQKPGQGLEWMGIINPGDSSTNIYPGDSATRYGPSFQGQVTISIDKSTSTAYLQWNAVKPSDTGIYYCARHVPVPISGTFLWREREMHDFGYFDDWGQGTLVIVSS VL: ELTQSPGTLSLSPGERATLSCRASQSVSSSYLAWYQQKPGQAPRLLIYGASNRAAGIPDRFSGSGSGADFTLTISRLEPEDFAVYYCQQYGSSLITFGQGTRLEIKR	0.33 OD 450 nm	0.29 OD 450 nm	0.59 OD 450 nm	0.93 OD 450 nm	0.65 OD 450 nm	0.43 OD 450 nm	1.08 OD 450 nm	1.13 OD 450 nm	0.99 OD 450 nm	0.64 OD 450 nm
Fab N4 (Fab, V domains shown) VH: VQLLEQSGPEVKKPGDSLRISCKMSGDSLVTTWIGWVRQKPGQGLEWMGIINPGDSSTNIYPGDSATRYGPSFQGQVTISIDKSTSTAYLQWNNVKASDTGIYYCARHVPVPISGTFLWREREMHDFGYFDDWGQGTLVIVSS VL: ELTLTQSPGTLSLSPGERATLSCRASQSVSNNYLAWYQQKPGQAPRLLIYGASSRATGIPDRFSGSGSGTGFTLIISRLEPEDFAVYYCQQYGSSSITFGQGTRLEIKR	0.48 OD 450 nm	0.44 OD 450 nm	1.03 OD 450 nm	1.49 OD 450 nm	1.06 OD 450 nm	0.71 OD 450 nm	1.73 OD 450 nm	1.75 OD 450 nm	1.57 OD 450 nm	0.99 OD 450 nm
Fab N2 (Fab, V domains shown) VH: VQLLEQSGPEVKKPGDSLRISCKMSGDSLVTTWIGWVRQKPGQGLEWMGIINPGDSSTNIYPGDSATRYGPSFQGQVTISIDKSTSTAYLQWNTVKPSDTGIYYCARHVPVPISGTFLWREREMHDFGYFDDWGQGTLVIVSS VL: ELTQSPGTLSLFPGERATLSCRASQSILGRYLAWYQQKGGRAPRLLIFGASKRATGIPDRFSGSGSGTDFTLTIGRLEPEDFAVYYCQHYGSSITFGQGTRLDIKR	0.44 OD 450 nm	0.4 OD 450 nm	0.82 OD 450 nm	1.09 OD 450 nm	0.81 OD 450 nm	0.46 OD 450 nm	1.36 OD 450 nm	1.44 OD 450 nm	1.34 OD 450 nm	0.92 OD 450 nm
